# Results published in the supplement of paper PMC10724198.
# ± gives the standard deviation of the averaged measurements.
# Test system: Saccharomyces cerevisiae
# Experiment: protein stability index of tFT-peptide fusion (C-terminal peptide) (PSI (0-1 scale)); higher = more stable (slower turnover)
# Conditions: genetic background: wild type; temperature: 30 C
# Experimental: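 Multiplexed protein stability (MPS) profiling in S. cerevisiae. Random 12-aa peptides (tFT-X12 library) are fused to the C-terminus of a sfGFP-mCherry tandem fluorescent timer, after mCherry and a GGGS linker. Cells are FACS-sorted into 8 mCherry/sfGFP bins and deep-sequenced. The protein stability index (PSI) is the read-weighted bin average, scaled from 0 (unstable) to 1 (stable). Only peptides with >10 reads are reported; cells were grown at 30 °C in SC-His with glucose.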
# 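Note: PSI is a weighted mean of sequencing reads over stability bins, variants kept only with over 10 reads, mCherry proximal and sfGFP distal, peptide attached via GGGS linker.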
row,Sequence,protein stability index
1,CQHPLRPRCLND,0.6724 ± 0.0048
2,CRGAGGRTVING,0.665 ± 0.043
3,CRGRWVAWSMGI,0.7221 ± 0.0019
4,CRMEARHSVLKS,0.554 ± 0.0087
5,CRPVPGGLFVVS,0.669 ± 0.064
6,CRRRWSAPGGSR,0.7176 ± 0.0047
7,CRSGFEPSPHLG,0.657 ± 0.029
8,CSAGLSDRGFCE,0.663 ± 0.023
9,CSCSQYFHLPNV,0.687 ± 0.017
10,CSGCSGSCSVLA,0.646 ± 0.049
11,CSLRDRCAFSFG,0.6982 ± 0.0052
12,CSLSLPAFSAPS,0.669 ± 0.04
13,CSLVIRRRREVG,0.659 ± 0.044
14,CSPGVSGVSSVD,0.685 ± 0.026
15,CSPMFTRQPLPL,0.645 ± 0.027
16,CSRDNRTSRSIL,0.681 ± 0.032
17,CSSRDGLLWRFR,0.731 ± 0.088
18,CSSTGVPGRRHE,0.709 ± 0.013
19,CSTFFVRSLSFI,0.63 ± 0.034
20,CSVFFFMGFLFA,0.511 ± 0.13
21,CSVRGDVANYAF,0.6457 ± 0.0028
22,CSVSACTVSLCC,0.5849 ± 0.0017
23,CTCSGELSLRGV,0.684 ± 0.011
24,CTLSFRVAFFSL,0.5848 ± 0.00071
25,CTPSSLRPLMPS,0.655 ± 0.073

row,Sequence,protein stability index
1,CTRCKRDDYNIE,0.6803 ± 0.006
2,CTRRACDVRAVL,0.699 ± 0.025
3,CVAAASPFRLLY,0.654 ± 0.04
4,CVAGHPPASPPP,0.712 ± 0.059
5,CVFGSHCRVLVV,0.556 ± 0.028
6,CVGSLGVVVGWG,0.724 ± 0.013
7,CVGSVRYRIRGS,0.63 ± 0.06
8,CVLARVWMRGGR,0.636 ± 0.023
9,CVLVVGVPAGGG,0.611 ± 0.028
10,CVLYQLPPAYSF,0.643 ± 0.029
11,CVQCRRPSEWLV,0.698 ± 0.033
12,CVRARQLTLCIP,0.5505 ± 0.0036
13,CVSWFWVGYWWG,0.516 ± 0.0086
14,CVTGPIDKLRLL,0.5947 ± 0.0023
15,CVVHLLIFGLCI,0.5963 ± 0.0046
16,CVVVSCVCPFVV,0.5739 ± 0.0036
17,CVVYLDVRLPVT,0.58 ± 0.023
18,CVYGILPRPPDF,0.671 ± 0.035
19,CWVHGRWVSGAS,0.813 ± 0.051
20,CYFLAMPLYFPL,0.622 ± 0.014
21,CYIGGEVEFVGW,0.727 ± 0.0094
22,CYPIPEGWIGLM,0.607 ± 0.045
23,DAAVQSGGRVAG,0.481 ± 0.03
24,DACRLLGGRRCG,0.717 ± 0.07
25,DAGGGKLFGNSK,0.663 ± 0.019

row,Sequence,protein stability index
1,DAPLGDLRAYTT,0.747 ± 0.028
2,DAYLGKRESRLW,0.615 ± 0.07
3,DCSCRRSISVLV,0.54 ± 0.024
4,DCVSLFRVPRVA,0.612 ± 0.028
5,DCWAGWGLCGWG,0.748 ± 0.044
6,DDAVTHTLWVSE,0.692 ± 0.012
7,DDDHRKITGTSR,0.707 ± 0.091
8,DDFQVFCSNGMG,0.708 ± 0.018
9,DDGRRRAERGGG,0.685 ± 0.047
10,DDSSSFPSLLSF,0.753 ± 0.069
11,DDSVGKLFYCLF,0.7 ± 0.03
12,DEDIHQTIGKKG,0.716 ± 0.056
13,DEIRGERETKGR,0.656 ± 0.036
14,DEMNEGHVPPGV,0.718 ± 0.071
15,DERLNGWERGDV,0.698 ± 0.07
16,DFSPPSPLPLPL,0.721 ± 0.01
17,DFVLSASIGFTR,0.673 ± 0.035
18,DGFWGGASHQGW,0.699 ± 0.0089
19,DGHSAAAFCVRG,0.748 ± 0.1
20,DGPSPAASPPRF,0.757 ± 0.095
21,DGSGPSWGRKGR,0.6942 ± 0.0043
22,DGSLTMTRTGFR,0.704 ± 0.021
23,DGVAMCGLKASL,0.643 ± 0.1
24,DGWTLCRVGCVG,0.652 ± 0.061
25,DHVSVFSFVCFL,0.633 ± 0.015

row,Sequence,protein stability index
1,DICFGLLPPWPA,0.755 ± 0.057
2,DICSNSGRQRFL,0.685 ± 0.013
3,DIERSAAPRLLL,0.727 ± 0.042
4,DIIRKKNKQGRI,0.702 ± 0.035
5,DILLPFQFLDDF,0.6927 ± 0.00039
6,DILRSGVYDVCK,0.7251 ± 0.00083
7,DITKNGKSKMLK,0.664 ± 0.051
8,DIWEFYNNLYSS,0.719 ± 0.013
9,DKGTMNRARGGS,0.683 ± 0.024
10,DKKNIRIYNKTL,0.669 ± 0.042
11,DKLLTYTLGARI,0.69 ± 0.016
12,DLAIPPPRPRFF,0.701 ± 0.013
13,DLHCRSAILALL,0.594 ± 0.034
14,DLLCLWEFPSIP,0.731 ± 0.12
15,DLPRLGLPRRAC,0.63 ± 0.047
16,DLQACGATSKAS,0.683 ± 0.059
17,DLSDPGHSLSIL,0.68 ± 0.055
18,DLTPLSSSRLPP,0.652 ± 0.04
19,DMPIVVDGSLVR,0.684 ± 0.027
20,DNLFSPTLLWEL,0.6674 ± 0.0034
21,DNSDIKKGARRI,0.707 ± 0.014
22,DNSSLGSIGTDI,0.645 ± 0.046
23,DPAPSPTGMCTR,0.688 ± 0.016
24,DPLSPLPPPPPP,0.635 ± 0.14
25,DPPLSGRAKGPH,0.709 ± 0.02

row,Sequence,protein stability index
1,DPRAGLGLLELT,0.644 ± 0.067
2,DQFRLLQYWEAS,0.72 ± 0.048
3,DQTPRWQRCTRQ,0.733 ± 0.12
4,DQVGLVLSDLIY,0.7272 ± 0.00085
5,DREKGGLREADQ,0.669 ± 0.035
6,DREKRKSGGERR,0.647 ± 0.039
7,DRGSGRFVRGGL,0.664 ± 0.083
8,DRKDGVSVSVGY,0.675 ± 0.05
9,DRLGFGPVSRID,0.665 ± 0.064
10,DRPPYTPHPPYP,0.7521 ± 0.0073
11,DRPSPGLALGGP,0.7314 ± 0.0023
12,DRRNNRLIRRNQ,0.7174 ± 0.0045
13,DRSRESSMSLPD,0.711 ± 0.0076
14,DRSRSPCPCSSP,0.6898 ± 0.0022
15,DSCPGAAGGRGG,0.642 ± 0.043
16,DSGTIWFPTHFV,0.7151 ± 0.0044
17,DSGVAVVLVGCV,0.529 ± 0.013
18,DSPASHWSVKSL,0.638 ± 0.043
19,DSTTGALILLPV,0.692 ± 0.021
20,DTDIHRKRTRQV,0.7 ± 0.037
21,DTIQFLQCYRPI,0.655 ± 0.035
22,DTSRGDWEVFLI,0.713 ± 0.061
23,DTYKDSHLNRRI,0.664 ± 0.022
24,DVCFIRRRYKKI,0.669 ± 0.041
25,DVERKKIKIARQ,0.714 ± 0.047

row,Sequence,protein stability index
1,DVHNRSPNRAPE,0.671 ± 0.042
2,DVNTGYHFLRDL,0.6757 ± 0.0015
3,DVRLGSQGSFRW,0.705 ± 0.01
4,DVRYQSLRRSGF,0.725 ± 0.028
5,DVWVLAANSSLG,0.758 ± 0.1
6,DWGGRRVTEEEG,0.641 ± 0.029
7,DYLSSPLSSPSP,0.667 ± 0.066
8,DYSTLFVSVADP,0.667 ± 0.0069
9,EAGMGVGRCGTG,0.728 ± 0.01
10,EARMGGGRCGTG,0.684 ± 0.008
11,EAWRQGRAGRGP,0.6148 ± 0.0034
12,ECGGAVALSDRA,0.7672 ± 0.0018
13,ECPYFSHTPVAV,0.644 ± 0.032
14,ECVERYLFGEGA,0.71403 ± 0.00042
15,ECVGSSKVYMLL,0.677 ± 0.092
16,ECYLYGSMDGFI,0.588 ± 0.036
17,EDVEGVWVKGCE,0.725 ± 0.17
18,EEAGETAGGRRE,0.648 ± 0.093
19,EEGGEVREGKQA,0.702 ± 0.019
20,EEHVIQNIKCKN,0.738 ± 0.037
21,EELGRGLESLGL,0.699 ± 0.076
22,EEPVVSNPPLLA,0.688 ± 0.033
23,EERNNQRKKRKG,0.709 ± 0.038
24,EERNSVRGYTES,0.734 ± 0.028
25,EESRVRTTNNTT,0.666 ± 0.057

row,Sequence,protein stability index
1,EFFAPDVVALMR,0.692 ± 0.17
2,EFPRHDLDCSLV,0.7095 ± 0.00082
3,EGAQVVLVRVGV,0.547 ± 0.012
4,EGDGLGWGGQGG,0.67 ± 0.013
5,EGDTPFKNRVKF,0.716 ± 0.061
6,EGEEVNTGGEEA,0.642 ± 0.017
7,EGEGPRGNGSGA,0.648 ± 0.043
8,EGGLDPFRVIMG,0.643 ± 0.029
9,EGLCVLMTQVGG,0.576 ± 0.016
10,EGRCPAMRGAFG,0.6797 ± 0.0041
11,EGRPGGVGEGSQ,0.671 ± 0.011
12,EGSRRQERAGRQ,0.6668 ± 0.0028
13,EGTPGARSQGRE,0.662 ± 0.035
14,EGVGRRICSPQA,0.648 ± 0.031
15,EGVVGGRWCGRG,0.676 ± 0.082
16,EGWLVDVDRIVG,0.741 ± 0.076
17,EHLQTHYLWSTG,0.701 ± 0.062
18,EIDAKNRDEETN,0.694 ± 0.019
19,EILQDRAVSKGR,0.697 ± 0.039
20,EITRRAQHWKAK,0.708 ± 0.018
21,EKEFLWKAISAV,0.504 ± 0.016
22,EKEKKKVHRQEE,0.712 ± 0.059
23,EKGKGREIKKGE,0.646 ± 0.048
24,EKGRKKTYGDEK,0.669 ± 0.02
25,EKGSIYVVQYGK,0.683 ± 0.022

row,Sequence,protein stability index
1,EKHNNNRYKQYL,0.7255 ± 0.0052
2,EKKEHNHKVKYN,0.626 ± 0.026
3,EKKKKIKNKESI,0.6932 ± 0.0036
4,EKKKKKAKKEKN,0.764 ± 0.045
5,EKMDIEKKVEGS,0.812 ± 0.12
6,EKNRRCQKRKKK,0.726 ± 0.054
7,EKQIREERRKIE,0.704 ± 0.062
8,EKRDENENTNKK,0.66 ± 0.072
9,EKRERKRDSGHR,0.685 ± 0.063
10,EKTQQMPQPNNQ,0.663 ± 0.007
11,EKTTDIKENERR,0.692 ± 0.029
12,ELINQENQPAYE,0.671 ± 0.038
13,ELRCSRPIHSDF,0.681 ± 0.013
14,ELRISSTTVTSP,0.664 ± 0.008
15,ELRTKRGASNPR,0.7097 ± 0.0021
16,ELSNLRGLHTCT,0.654 ± 0.02
17,ELVSFPIGGMGS,0.671 ± 0.056
18,ENDRKKDKERIK,0.678 ± 0.013
19,ENKIKERPKMRY,0.658 ± 0.026
20,ENLVLRDRGRGM,0.692 ± 0.017
21,ENNKRRTKRHKE,0.62791 ± 0.00025
